Results: US20250041410A1 (Y MABS THERAPEUTICS, published 2025)

Target: the molecule itself
Assay: mass photometry (Refeyn) after dilution in PBS and 60 min at 37 C; self-association of the chain into dimer and tetramer
Experimental: For this example, a Refeyn Mass photometer (Refeyn Ltd, Oxford UK) was used according to the manufacturer's instructions, with the following settings:
The GD2-SADA construct was diluted in PBS, and incubated for 60 minutes at 37° C. before measuring the size distribution. Following dilutions were made: 150 nM, 100 nM, 50 nM, 10 nM, 5 nM, 1 nM and 100 PM and subjected to Mass photometry using the Refeyn Mass photometer.

B1: GD2-SADA complex (other)
chain: EIVMTQTPATLSVSAGERVTITCKASQSVSNDVTWYQQKPGQAPRLLIYSASNRYSGVPARFSGSGYGTEFTFTISSVQSEDFAVYFCQQDYSSFGCGTKLEIKRGGGGSGGGGSGGGGSGGGGSGGGGSGGGGSQVQLVESGPGVVQPGRSLRISCAVSGFSVTNYGVHWVRQPPGKCLEWLGVIWAGGITNYNSAFMSRLTISKDNSKNTVYLQMNSLRAEDTAMYYCASRGGHYGYALDYWGQGTLVTVSSGGGGSGGGGSGGGGSGGGGSHVQLVESGGGLVQPGGSLRLSCAASGFSLTDYGVHWVRQAPGKGLEWLGVIWSGGGTAYNTALISRFTISRDNSKNTLYLQMNSLRAEDTAVYYCARRGSYPYNYFDAWGCGTLVTVSSGGGGSGGGGSGGGGSGGGGSGGGGSGGGGSQAVVTQEPSLTVSPGGTVTLTCGSSTGAVTASNYANWVQQKPGQCPRGLIGGHNNRPPGVPARFSGSLLGGKAALTLLGAQPEDEAEYYCALWYSDHWVIGGGTKLTVLGTPLGDTTHTSGKPLDGEYFTLQIRGRERFEMFRELNEALELKDAQAGKEPGGSGGA
notes: A single polypeptide: anti-GD2 scFv, humanized C825 (anti-DOTA) scFv and the p53 tetramerization (SADA) domain; It is written here as one chain that associates with itself; In the mass photometry assay it was a concentration-dependent mixture of monomer, dimer, tetramer and higher multimers; also called GD2-SADA construct; GD2-SADA conjugate
Does B1 bind?
Result: binds
